Test results: US10059956B2, “Glycosyltransferase gene and use thereof” (SUNTORY HOLDINGS LIMITED, priority 2012, dated 2018)

Experiments:
[1] = tested on: petunia (Surfinia Bouquet Red); experiment: Flower petal pigment analysis of recombinant petunia introduced with NmGT8; assay type: in vivo
From the text: Binary vectors pSPB5424 and pSBP5428 for expressing NmGT8 were constructed and introduced into petunia (Surfinia Bouquet Red). […] Details of the introduced constructs are described below (see FIG. 17). pBINPLUS was used for the basic skeleton of pSPB5424, and three expression cassettes were contained therein (consisting of 1: E[…] promoter, full-length cDNA pansy F3'5'H (described in PCT/JP2004/011958, SEQ ID NO: 3) and HSP terminator (Plant Cell Physiology (2010), 51, 328-332); 2: E[…] promoter, full-length cDNA torenia flavone synthase and HSP terminator; and 3: E[…] promoter, full-length cDNA NmGT8 and HSP terminator). pBINPLUS was also used for the basic skeleton of pSPB5428, and two expression cassettes were contained therein (consisting of 1: E[…] promoter, full-length cDNA torenia flavone synthase and HSP terminator; and 2: E[…] promoter, full-length cDNA NmGT8 and HSP terminator). Pigments in the flower petals were analyzed for full-length cDNA torenia flavone synthase and full-length cDNA NmGT8 in those stains in which transcription products were confirmed. 0.2 g of completely open flower petals were freeze-dried for 24 hours or more and finely crushed with a spatula, followed by the addition of 4 ml of extract buffer (composition: 50% aqueous acetonitrile solution containing 0.1% TFA) and subjecting to ultrasonic treatment for 20 minutes. The flower petal extract was analyzed by high-performance liquid chromatography (Prominence (Shimadzu Corp.)). Analyses were carried out under the conditions and in the same manner as in Example 5. Non-recombinant petunia not introduced with genes and recombinant petunia introduced only with torenia flavone synthase that biosynthesizes flavone were analyzed in the same manner as controls (FIG. 18). Moreover, flower petal extract diluted 50-fold was also analyzed with a high-performance liquid chromatograph (Shimadzu Corp.). The Shimadzu LCMS-IF-TOF was used for the detector and flavones were detected at 433.1057 ([Api-Glc+H]) and 449.1084 ([Lut-Glc+H]). The Inertsil ODS-4 (250×4.6 mm, 5 Shimadzu Corp.) was used for the column. […]

[2] = tested on: rose (Noblesse, Ritapa Humera); experiment: Flower petal pigment analysis of recombinant rose introduced with NmGT8; assay type: in vivo
From the text: Binary vectors pSPB4577, pSBP4578, pSBP5437 and pSBP5440 for expressing NmGT8 were constructed and introduced into rose (Noblesse, Ritapa Humera). […] Details of the introduced constructs are described below (see FIG. 21).
(§1) pBINPLUS was used for the basic skeleton of pSPB5477, and three expression cassettes were contained therein (consisting of 1: EI235S promoter, full-length cDNA pansy F3′5′H and mas terminator; 2: EI235S promoter, full-length cDNA torenia flavone synthase and mas terminator; and, 3: EI235S promoter, full-length cDNA NmGT8 and mas terminator).
as §1, with “of pSPB4578,” for “of pSPB5477,”, “1: perilla anthocyanin 3-acyltransferase promoter (described in PCT/JP2010/053909),” for “1: EI235S promoter,”, “terminator). […]” for “terminator).”
Pigments in the flower petals were analyzed for full-length cDNA torenia flavone synthase and full-length cDNA NmGT8 in those strains in which transcription products were confirmed. […] The flower petal extract was analyzed by high-performance liquid chromatography (Prominence (Shimadzu Corp.)). […] Non-recombinant rose not introduced with the genes was analyzed in the same manner as a control (FIG. 22). Flower petal extract diluted 50-fold was also analyzed with a high-performance liquid chromatograph (Shimadzu Corp.). The Shimadzu LCMS-IF-TOF was used for the detector and flavones were detected at […] ([Api-Glc+H]) and […] ([Lut-Glc+H]). […]

[3] = recombinant petunia flower petal extract, LC-MS
[4] = recombinant rose flower petal extract, LC-MS

B1: NmGT8: nemophila glycosyltransferase (SEQ ID NO: 1/2) having activity that transfers a sugar to the hydroxyl group at the 4′-position of a flavone (protein, listed as Nemophila menziesii)
chain: MEKKTIILYPSPGIGHLVSMVELAKLILNREPSYSIIIFISSAPYSTGSSAPYISHVSATTSGISFHHLPVLVLPPNTFSSFEEIAYKIPQLNNPNLKLALQTISKESSDLKAFIIDFFCTAAVEVSSNLEIPTYFFFTSGSSAMCQFLYLPTLHETITQKDLQDPNTYVHIPGIPPIHSLDLPKVLSNRSTVLYKELINTANQMAKCSGILINAFETLEPKAVKALKEGLCTPGMPTPPVYCIGPLIASGDKGNVNDAHGHEILTWLNSQPSKSVVFLCFGSLGTFKEDQLKEIAIGLENSGHRFLWVMKSPPIDDKTKRFLPPPEPDFNVLLPEGFLERTKERGVIVKSWAPQLAILNHDAIGGFVTHCGWNSVLEAICGGVPMLAWPLYAEQRVNRVCMVEEMKVALPLEESVDGFVMASEIEKRVKELVDYESSEAIRDQVKIMSEKAKTAVAVSGSSHDALTKLLDGWK
For B1, the “flavone 4′-glucoside share of the biosynthesized flavones” value [1, 3] was 95.6%, the “flavone 7-glucoside share of the biosynthesized flavones” value [1, 3] was 4.4% and the “flavones detected in flower petals” value ([1]; recombinant petunia introduced with flavone synthase and NmGT8, HPLC) was “apigenin 4′-glucoside and luteolin 4′-glucoside were detected”. For the same molecule, the “flavone 4′-glucoside share of the biosynthesized flavones” value [2, 4] was 97.0%, the “flavone 7-glucoside share of the biosynthesized flavones” value [2, 4] was 3.0% and the “flavones detected in flower petals” value ([2]; recombinant rose introduced with flavone synthase and NmGT8, HPLC) was “apigenin 4′-glucoside and luteolin 4′-glucoside were detected”.
